# In the supplement of paper PMC7877785:
# ± gives the uncertainty stated by the source.
# Test: self-splicing fitness, log relative to wild type (ln ratio); higher = more splicing; Tetrahymena group I intron in knt gene, E. coli kanamycin selection, DiMSum; sequences stand for … in CUCUCU…GGAGGGAAAAGUUAUCAGGCAUGCACCUGGUAGCUAGUCUUUAAACCAAUAGAUUGCAUCGGUUUAAAAGGCAAGACCGUCAAAUUGCGGGAAAGGGGUCAACAGCCGUUCAGUACCAAGUCUCAGGGGAAACUUUGAGAUGGCCUUGCAAAGGGUAUGGUAAUAAGCUGACGGACAUGGUCCUAACCACGCAGCCAAGUCCUAAGUCAACAGAUCUUCUGUUGAUAUGGAUGCAGUUCACAGACUAAAUGUCGGUCGGGGAAGAUGUAUUCUUCUCAUAAGAUAUAGUCGGACCUCUCCUUAAUGGGAGCUAGCGGAUGAAGUGAUGCAACACUGGAGCCGCUGGGAACUAAUUUGUAUGCGAAAGUAUAUUGAUUAGUUUUGGAGUACUCGUGGUCG
# Outline: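 The eight P1ex-region nucleotides of an intron in the knt kanamycin-resistance gene on pET-22b(+) were all randomised and the library put into E. coli BL21(DE3). Six replicate transformations were grown overnight at 37°C or 30°C on LB agar with or without 25 μg/mL kanamycin, together with 100 μg/mL carbenicillin, 50 μM IPTG and 0.2% rhamnose. Colonies were pooled and amplicon-sequenced on an Illumina HiSeq 2500. Fitness from DiMSum is the error-weighted combination of wild-type-normalised replicate fold changes, kanamycin over none.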
Sequence,self-splicing fitness (ln) (30 °C),self-splicing fitness (ln) (37 °C)
CAUAAGCAAUAUUACGUUAG,-1.13 ± 0.083,-0.61 ± 0.11
AGUAAGCAAUAUUACGCACU,-3.07 ± 0.29,-1.79 ± 0.29
UCACAGCAAUAUUACGGAAC,-2.98 ± 0.21,-2.45 ± 0.26
AGGUAGCAAUAUUACGAUGA,-0.948 ± 0.016,-0.562 ± 0.034
CGAGAGCAAUAUUACGCAGA,-3.36 ± 0.33,-1.94 ± 0.26
UUUUAGCAAUAUUACGCUCG,-0.861 ± 0.14,-0.128 ± 0.16
UUAUAGCAAUAUUACGAACG,-0.792 ± 0.17,-0.293 ± 0.21
GGUGAGCAAUAUUACGAGGU,-2.22 ± 0.29,-1.68 ± 0.27
AGGUAGCAAUAUUACGAGCU,-0.0909 ± 0.015,-0.123 ± 0.034
GACGAGCAAUAUUACGGUGU,-4.63 ± 0.45,-2.64 ± 0.22
AACUAGCAAUAUUACGCCAC,,-1.79 ± 0.36
CUGUAGCAAUAUUACGGUCC,-2.27 ± 0.25,-2.71 ± 0.44
AAGGAGCAAUAUUACGCUCA,,-0.14 ± 0.37
CAGUAGCAAUAUUACGUUGA,,-2.14 ± 0.16
GACCAGCAAUAUUACGGUCG,-1.98 ± 0.077,-1.47 ± 0.11
ACGUAGCAAUAUUACGAAGC,,-1.96 ± 0.41
UUAAAGCAAUAUUACGCAUC,-1.88 ± 0.17,-1.39 ± 0.34
GACGAGCAAUAUUACGCACA,-2.32 ± 0.15,-0.917 ± 0.14
CCCAAGCAAUAUUACGUGCU,-2.08 ± 0.11,-2.6 ± 0.2
CGAAAGCAAUAUUACGGGUC,-4 ± 0.3,-3.76 ± 0.34
GUAAAGCAAUAUUACGACUA,-0.649 ± 0.097,-0.957 ± 0.11
CAGAAGCAAUAUUACGAUCU,-1.88 ± 0.12,-0.995 ± 0.1
GUGUAGCAAUAUUACGUGAC,-1.35 ± 0.11,-1.29 ± 0.19
CUCAAGCAAUAUUACGCGUU,-4.07 ± 0.46,-2.92 ± 0.3
UGCAAGCAAUAUUACGUGUU,-2.22 ± 0.072,-1.52 ± 0.098

Sequence,self-splicing fitness (ln) (30 °C),self-splicing fitness (ln) (37 °C)
UCAAAGCAAUAUUACGUACC,-3.01 ± 0.3,-1.69 ± 0.3
CGCAAGCAAUAUUACGUGCA,-0.273 ± 0.064,-0.135 ± 0.075
GCGAAGCAAUAUUACGGGAU,-3.58 ± 0.3,-2.07 ± 0.26
UAUAAGCAAUAUUACGAAUA,-1.55 ± 0.24,-0.822 ± 0.19
CAGAAGCAAUAUUACGCAUC,-4.43 ± 0.37,-2.37 ± 0.14
UGGUAGCAAUAUUACGGUCA,-0.695 ± 0.097,-0.176 ± 0.1
CGCCAGCAAUAUUACGGCAU,-1.25 ± 0.081,-0.458 ± 0.088
CUUGAGCAAUAUUACGAUAA,-3.27 ± 0.31,-0.951 ± 0.37
GCAAAGCAAUAUUACGGUUU,-1.26 ± 0.063,-0.4 ± 0.082
GAGCAGCAAUAUUACGUCCG,-0.984 ± 0.3,-0.968 ± 0.41
GUUCAGCAAUAUUACGUAAU,0.434 ± 0.088,0.484 ± 0.098
CAACAGCAAUAUUACGAUCC,-2.87 ± 0.2,-1.4 ± 0.16
AGACAGCAAUAUUACGCCAU,-3.25 ± 0.26,-1.78 ± 0.17
CUAAAGCAAUAUUACGAUGC,-3.96 ± 0.3,-3.1 ± 0.33
ACGUAGCAAUAUUACGUCGA,-3.67 ± 0.3,-2.72 ± 0.24
UAAUAGCAAUAUUACGACGA,-1.41 ± 0.13,-1.15 ± 0.14
UUCAAGCAAUAUUACGACAG,-1.5 ± 0.11,-1.1 ± 0.095
UUUAAGCAAUAUUACGUGAG,-0.404 ± 0.067,-0.0655 ± 0.094
UAUUAGCAAUAUUACGUUCA,-1.04 ± 0.1,-0.21 ± 0.14
AUAGAGCAAUAUUACGACAA,-1.04 ± 0.07,-0.291 ± 0.092
AUGCAGCAAUAUUACGGAAC,,-2.76 ± 0.36
GAACAGCAAUAUUACGGAUU,-1.29 ± 0.076,-0.167 ± 0.093
UUCUAGCAAUAUUACGAUCA,-1.69 ± 0.23,-0.172 ± 0.18
UGAGAGCAAUAUUACGUCCG,-1.25 ± 0.23,-1.19 ± 0.42
